{
  "source": "patent US12138308B2",
  "about": "“Polymer composite for helicobacter pylori recognition and composition for photodynamic therapy comprising same” (eNBiaR Inc., priority 2018, dated 2024)",
  "key": {"[1]": {"system": "Helicobacter pylori (26695 strain)", "test": "Inhibition zone analysis of photodynamic antibacterial effect by laser intensity", "type": "cell-based", "conditions": "50.0 μg/ml based on Pheoa"}, "[2]": {"system": "Helicobacter pylori (SS1 strain)", "test": "Antibacterial activity in vitro by concentration, CFU assay, laser 10.0 J/cm^2", "type": "cell-based", "conditions": "for concentration at which colonies hardly appear / did not appear / Helicobacter pylori no longer grows / concentration from which the number of Helicobacter pylori colonies decreases: concentration based on the photosensitizer; for concentration at which colonies hardly appear / did not appear / Helicobacter pylori no longer grows / concentration from which the number of Helicobacter pylori colonies decreases / colony result value compared to the NC group at 50.0 μg/ml: laser 10.0 J/cm^2; for colony result value compared to the NC group at 50.0 μg/ml: 50.0 μg/ml free photosensitizer"}, "[3]": {"system": "Helicobacter pylori SS1 strain", "test": "Confocal microscopy: interaction with and inactivation of Helicobacter pylori SS1 strain", "type": "cell-based", "text": "(§1) Then, it was redispersed with D.W and the above process was repeated twice.\nas §1"}, "AGS cells [4]": {"system": "AGS cells", "description": "AGS cells were dispensed into each well by 1 ml at a concentration of 2×10^4 cells/well in a 24-well plate and cultured at 37° C. and 5% CO2 for 24 hours.\nAfter the reaction, the laser was irradiated in the range of 0-4.0 J/cm^2 using a laser of 50 mW intensity, and the MTT assay was performed to calculate the cell viability compared with the control."}, "AGS cells [5]": {"system": "AGS cells", "test": "Cellular uptake in AGS cells (pheophorbide a fluorescence intensity)", "type": "cell-based, human", "conditions": "30 minutes at 36° C., equal concentration based on pheophorbide a", "description": "After incubation, it was washed twice with DPBS, treated with trypsin and cells were collected and centrifuged (1500 rpm, 3 minutes) to remove the supernatant."}},
  "data": [
    {"substance": "3′-Sialyllactose-PEG-Pheophorbide a [3SL-PEG-Pheoa]", "values": [
      {"measurement": "inhibition zone at laser intensities of 30, 40, and 50 J/cm^2", "setting": "[1]; 100 mW laser", "result": "inhibition zone was also identified"},
      {"measurement": "inhibition zone at 10.0 J/cm^2 laser", "setting": "[1]; 100 mW laser, read two days later", "result": "inhibition zone in which Helicobacter pylori does not grow was confirmed"},
      {"measurement": "inhibition zone without laser irradiation", "setting": "[1]; comparative group, laser not irradiated", "result": "no inhibition zone was found"}
    ]},
    {"substance": "3′-Sialyllactose-Pullulan-Pheophorbide a [Example 3SL-PU-Pheoa]", "values": [
      {"measurement": "number of Helicobacter pylori colonies at 20.0 μg/ml", "setting": "[2]; 20.0 μg/ml based on Pheoa, laser 10.0 J/cm^2, decreased from 1×10^5 CFU/ml", "result": "5×10^3 CFU/ml"},
      {"measurement": "concentration at which colonies hardly appear / did not appear / Helicobacter pylori no longer grows", "setting": "[2]", "result": "≥ 50000", "unit": "ng/mL"}
    ]},
    {"substance": "3′-sialyllactose-chitosan-pheophorbide a [3SL-Chitosan-Pheoa]", "values": [
      {"measurement": "concentration at which colonies hardly appear / did not appear / Helicobacter pylori no longer grows", "setting": "[2]", "result": 25000, "unit": "ng/mL"},
      {"measurement": "concentration from which the number of Helicobacter pylori colonies decreases", "setting": "[2]", "result": 10000, "unit": "ng/mL"}
    ]},
    {"substance": "butyl-poly(3SL-lysine)10-Ce6", "values": [
      {"measurement": "concentration at which colonies hardly appear / did not appear / Helicobacter pylori no longer grows", "setting": "[2]", "result": 1000, "unit": "ng/mL"},
      {"measurement": "concentration from which the number of Helicobacter pylori colonies decreases", "setting": "[2]", "result": 500, "unit": "ng/mL"}
    ]},
    {"substance": "butyl-poly(3SL-lysine)10-HPP", "values": [
      {"measurement": "number of Helicobacter pylori colonies at 10.0 μg/ml", "setting": "[2]; 10.0 μg/ml based on HPP, laser 10.0 J/cm^2, decreased from 1×10^5 CFU/ml", "result": "3×10^3 CFU/ml"},
      {"measurement": "concentration at which colonies hardly appear / did not appear / Helicobacter pylori no longer grows", "setting": "[2]", "result": "≥ 25000", "unit": "ng/mL"}
    ]},
    {"substance": "butyl-poly(3SL-lysine)10-PPIX", "values": [
      {"measurement": "concentration at which colonies hardly appear / did not appear / Helicobacter pylori no longer grows", "setting": "[2]", "result": 10000, "unit": "ng/mL"},
      {"measurement": "concentration from which the number of Helicobacter pylori colonies decreases", "setting": "[2]", "result": 5000, "unit": "ng/mL"}
    ]},
    {"substance": "butyl-poly(3SL-lysine)10-SSiPC", "values": [
      {"measurement": "number of Helicobacter pylori colonies at 25.0 μg/ml", "setting": "[2]; 25.0 μg/ml based on SSiPC, laser 10.0 J/cm^2, decreased from 1×10^5 CFU/ml", "result": "4×10^3 CFU/ml"},
      {"measurement": "concentration at which colonies hardly appear / did not appear / Helicobacter pylori no longer grows", "setting": "[2]", "result": 50000, "unit": "ng/mL"}
    ]},
    {"substance": "butyl-poly(6SL-lysine)10-Pheoa", "values": [
      {"measurement": "interaction with Helicobacter pylori (Cy5 fluorescence of pheophorbide a coinciding with SYTO 9)", "setting": "[3]; SS1 strain 1×10^6 CFU/ml, 1 μg/ml based on pheophorbide a, 37° C., 2 hours", "result": "fluorescence of Cy5 (purple) of pheophorbide a of HSP did not appear"},
      {"measurement": "inactivation: propidium iodide (Red) fluorescence, cell membrane damage", "setting": "[3]; SS1 strain, total 10 J/cm^2, 50 mW, Laser (+) for 3SL-LRHSP, Laser(+) and Laser(−) for the controls", "result": "propidium iodide (Red) fluorescence was not confirmed"}
    ]},
    {"substance": "chlorin e6 [Ce6, reference compound]", "values": [
      {"measurement": "colony result value compared to the NC group at 50.0 μg/ml", "setting": "[2]", "result": "more than half"}
    ]},
    {"substance": "pheophorbide a [reference compound]", "values": [
      {"measurement": "laser irradiation dose from which cytotoxicity appeared", "setting": "AGS cells [4]", "result": 0.8, "unit": "J/cm^2"},
      {"measurement": "cellular uptake: pheophorbide a fluorescence intensity compared with the control", "setting": "AGS cells [5]", "result": "7×10^2"},
      {"measurement": "number of Helicobacter pylori colonies at 50.0 μg/ml", "setting": "[2]; 50.0 μg/ml based on Pheoa, same amount of laser (10.0 J/cm^2)", "result": "9×10^2 CFU/ml"},
      {"measurement": "colony result value compared to the NC group at 50.0 μg/ml", "setting": "[2]", "result": "slightly less than half"}
    ]},
    {"substance": "succinylated silicon phthalocyanine [SSiPC, reference compound]", "values": [
      {"measurement": "colony result value compared to the NC group at 50.0 μg/ml", "setting": "[2]", "result": "more than half"}
    ]}
  ]
}
